Results on 5 sequences are retold here after a protein production outcome set (Wang et al. 2014).

The series is described as follows: label from the status in PepcDB records.

As to “MRDYATTAAGFDLQRTAAATLSGTLQALNACVECCDRHALPGRIALFWEGKDGSRASYTFSELKALSGRFANFLQAQGVRPGDCVAGLLPRTPELLVTILGAWRLGAVYQPLFTAFGPKAIEHRVATAGSKVLVTDAANRDKLDELADPPLAVTVGGPKGQGIRRGDFSFWAELERYPAEFEPVPRSGEDPFLMMFTSGTTGLAKPVPVPLKAILAFVGYLREAVDLRPEDAFWNLADPGWAYGLYYAVAGPLAMGHPTTFYEGPFSVESTCRIIRDYGITNLAGSPTAYRLLMAAGAAAETALKGRLRAVSSAGEPLTPEVIRWFADRLGTTIHDHYGQTELGMVLCNHHALAHPVRVGAAGFACPGHRVVVLDDDLNELPPGQPGILALDRRRSPLMWFPGYQGLETAAFVGDYYLSGDTVELNEDGSISFVGRADDVITTSGYRVGPFDVESALIEHPAVMEAAVIGKPDPERTELVKAFVVLCAGHRPTPELADALQRYVRQRLSAHAYPREIEFLEELPKTPSGKIQRFLLRNQEIARQREAAPRAAAAN”, the protein production result was “failed”.
Under “MREESIGRIAKDFLGHEGFQLTEWGGGNLNYLYRVDSTKESYILKYAPPYIRCLGEGYPLSSERLRYEILGLKAANETIPEFAPKLFYVAKEGVVMEYLEGFKLLRQAFIQGEKIPHLAEHLAEMLARFLVKNSFWALNEGERKKLLEQSENSLMRRLSEDYIFTFPFMEHPTNQKNPTSAPSVREIHQDKEWLGAILWLKSRFSTAKEGLLHGDLHTGSLMIKGEQIKMIDFEFSFVGPLSFDLGAILANWLIAYRTHKERGEVGGYSQWLREEMEEFIERFKEQFEFWAGEHGAPQIGIKGYLEALLIEAWGMAGVKIARRILGAAGVEDITSLESPLKEEVERRLLVLSREMTLRAALGIIPIQKGGREAYSWLF” stands “failed”; under “MREGSCPRLARCPGANWGHGRILHTRLHLASLPRPCYFFVTAYINGRETITASCKRSGVSPIPFRPMSPDFPLAPLDLAIIVGYFAVVGIIGYVVAQRIESGEDLFLAGRTLTWGTIGFSLFASNISSTTLIGLAGDAYRTGIAVSNYEWMAGIVLVFIAVFFVPFFIRSGLTTIPEYLEKRFDVRSRKYFSGLTIFTSVIIDTAGGIYAGTLVIKTFFPDLIPGMGPEMDFYVTCFILALIAGVYTAAGGLAAVVYTDILQAVILLVGSVFIAGITFAEFDFSWAQATAQLPEGHLSLMRPMGAEGLPWLGTLVGVPILGFYYWGLNQYIVQRILGARDLDNARWGAMLGGLLKLLPLFIMVLPGAFALQLYPDLGNPDQVFPTLVTDLLPVGIVGLVMAGLIAAIMSTIDSTLNSASTLITIDFVKPRWPDLTPQQVGTVGRVTTIILMLFAAVWAPQIREFPGLWSYIQSVLSYLVPPVVAVFLLGIFWPRTNGSGAFATLLGGHALSIAVFLCAQDGLLFADAPIDLHFTIIAGILTALCLGMLVAFSLTLGPPPAEEEIDDLTWANRVLETGPAMAWYKNYRVHAATVLALTAVMLVVFW”, “failed”.
In the case of “MRELLKVTLIVMLVLINAFFVACEFAMVKLRSSRIDTMITEGNNNAKRCKIIKDNLNSYLSACQLGITLCSLALGWMGESTVKELILPIVSVFNLSESIIYTISISISFLIITMMEVVIGELVPKALALYNTEKIMLSTSFLLVGFYKLTYPIIYFFNLSTDLFLKPFGYSQADEVDEPHTGDEIRLLVEESYKSGLIDESEQRLVDNIFEFEEKKIREIMVPRTDMVCIYESDSEEKILAILKEEGVTRYPVCRKNKDDILGFVHIRDLYNQKINENKIELEEILRDIIYISENLTIDKALERIRKEKLQLAIVVDEYGGTSGVVTIEDILEEIVGEIQDEFDKEETHIKKIGAGSYLVDGTESINYINKYFGLDIEHDGFDSIGGWISYMLGSNIKVNQSVTFENYNFTILELDKLRVVKLIIKSVI”, the protein production entry is “failed”.
Under “MREPYYKKLLGIKNYLIRKNYPEELEILIPKYVEENKELRGCIDCLSCLSVCPAREVSDYPGPTFMRQLARFAFDKRDEDGREITAYFENIYNCTTCAKCVEVCPKEIDIVHRAIEKLRALAFSKGYLEHHHHHH” stands “failed”.
